Molecular target: T1, mouse CD38 (Mus musculus, UniProt P56528)
T1 sequence (P56528 1-304): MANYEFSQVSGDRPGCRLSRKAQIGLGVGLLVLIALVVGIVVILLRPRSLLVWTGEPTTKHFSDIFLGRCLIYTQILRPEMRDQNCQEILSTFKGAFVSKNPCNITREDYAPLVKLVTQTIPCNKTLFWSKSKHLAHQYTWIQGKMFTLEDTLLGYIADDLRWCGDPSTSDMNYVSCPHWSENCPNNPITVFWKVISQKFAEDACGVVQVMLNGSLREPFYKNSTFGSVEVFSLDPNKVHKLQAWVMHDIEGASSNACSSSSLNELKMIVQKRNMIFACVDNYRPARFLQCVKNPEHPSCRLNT
Test: Binding to mouse CD38 (statement)

Substance: Daratumumab: anti-CD38 antibody of IgG1/κ subtype; heavy chain SEQ ID NO: 12, light chain SEQ ID NO: 13
- binding to mouse CD38: does not bind

Reference: patent US20220275090A1, “Combination Therapies with Anti-CD38 Antibodies and PARP or Adenosine Receptor Inhibitors” (Janssen Biotech, Inc., priority 2021, published 2022)
